Molecular target: BMP9 growth factor domain (GFD) dimer (human) (UniProt Q9UK05)
Assay: ELISA; displacement assay: anti-human CD105 antibody coated; sENG(M):BMP9 or sENG(D):BMP9 captured 2 h at room temperature; BMPRII or ActRIIB ECD at 0x, 1x, 5x, 25x, 125x molar excess for 30 min; BMP9 left in the complex detected with biotinylated anti-BMP9

Chain of BMP9 growth factor domain (GFD) dimer (human) (Q9UK05 320-429): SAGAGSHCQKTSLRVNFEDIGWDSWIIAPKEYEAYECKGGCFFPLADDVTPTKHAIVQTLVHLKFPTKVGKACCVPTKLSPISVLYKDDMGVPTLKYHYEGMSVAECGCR

percent displacement of sENG from the sENG(D):BMP9 complex at 125-fold molar excess: > 50%
Substance: BMP receptor type II (BMPRII) extracellular domain (from UniProt Q13873 27-150) (domain or fragment)

Source: article PMC12824264
